Two molecules from patent US20140056907A1 (Regeneron, published 2014) can be followed below.

For the test, the target named is T1, human ASIC3 (human, UniProt Q9UHC3 1-531).
T1 construct: whole, on cells; Expressed on 3T3 cells (3T3/hASIC3) or HEK293 cells (HEK/hASIC3-QCells); also called hASIC3
T1 sequence (looked up): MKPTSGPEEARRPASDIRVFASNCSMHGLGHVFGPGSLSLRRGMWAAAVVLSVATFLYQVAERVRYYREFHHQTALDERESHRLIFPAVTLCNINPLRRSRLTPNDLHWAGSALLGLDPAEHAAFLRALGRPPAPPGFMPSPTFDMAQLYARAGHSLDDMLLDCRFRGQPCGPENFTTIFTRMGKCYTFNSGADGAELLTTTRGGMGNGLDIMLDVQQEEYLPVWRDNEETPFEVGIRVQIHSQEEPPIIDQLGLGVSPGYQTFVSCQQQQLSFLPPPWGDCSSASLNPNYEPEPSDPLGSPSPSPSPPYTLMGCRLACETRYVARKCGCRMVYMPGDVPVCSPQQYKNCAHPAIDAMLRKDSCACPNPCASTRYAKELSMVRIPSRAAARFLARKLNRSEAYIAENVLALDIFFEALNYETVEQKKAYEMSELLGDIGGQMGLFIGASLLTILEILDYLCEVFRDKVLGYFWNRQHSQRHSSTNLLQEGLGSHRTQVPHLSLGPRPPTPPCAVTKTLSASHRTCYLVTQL
Description: FACS, 3T3/hASIC3 cells, 10 nM antibody. The text has this: For these experiments, four cell lines were constructed: (a) a mouse fibroblast 3T3 cell line stably transfected to overexpress full length human ASIC3 (3T3/hASIC3; amino acids 1-531 of NCBI accession number NP_{—}004760.1), (b) a 3T3 cell line stably transfected to co-express full length human ASIC1a and human ASIC3 (3T3/hASIC1/3; amino acids 1-528 of NCBI accession number NP_{—}001086.2 and amino acids 1-531 of NCBI accession number NP_{—}004760.1), (c) […] a stably transfected 3T3 cell line expressing the full-length mouse ASIC3 channel (3T3/mASIC3; amino acids 1-530 of NCBI accession number NP_{—}892045.2), and (d) a 3T3 cell line stably transfected to co-express full length mouse ASIC1a and mouse ASIC3 (3T3/mASIC1/3; amino acids 1-526 of NCBI accession number NP_{—}033727 and amino acids 1-530 of NCBI accession number NP_{—}892045.2). Antibody binding was determined using flow cytometry (FACS).
To perform the FACS binding experiments, adherent cells were collected with cold Millipore Accutase 3-5 minutes, spun and resuspended in ice-cold FACS buffer (PBS, 2% HI-FBS and 0.09% Na-azide). Anti-ASIC1 antibody at final concentrations of 10 nM was added for 20-30 minutes on ice. Cells were washed with 900 μL ice-cold FACS buffer, spun, and resuspended in 100 μL ice-cold FACS buffer. A secondary antibody which recognizes human Fc (Jackson Immuno Research, #109-136-098) and is conjugated to allophycocyanin, was then added to the cell mixture at a final concentration of 2.5 ug/mL. After incubating for 20 minutes on ice, the cells were washed and resuspended in FACS buffer, then sorted and analyzed on a flow cytometer (FACSCanto II, BD Biosciences, San Jose, Calif.) to determine relative binding by the candidate antibodies to the tested cell lines. Histograms of cells stained with anti-ASIC1 antibodies were compared with those of cells stained with secondary antibody alone. Percentage of ASIC1 signal over secondary antibody alone was calculated using FlowJo software (Tree Star, Ashland, Oreg.).
For orientation: Flow cytometry measures light scatter and fluorescence of single cells or particles in a stream.

B1: H3M7102N (antibody, V domains shown)
VH: EVQLLASGGGLVQPGGSLRLSCAASGFTFSSFAMSWVRQAPGKGLEWVSGISGSGGSTYYADSVKGRFTISRDNSKNTLYLQMNSLRAEDTAAYYCAKEAYKWQPWGQGIRVTVSS
VL: DIQMTQSPSTLSASVGDRVSITCRASQSISSWLAWYQQKPGKAPKLLIYKASNLDSGVPSRFSGSGSGTDFTLTISSLQPDDFATYYCQQYNSYSYTFGQGTKLEIK
notes: Chimeric: human variable, mouse constant domains; H3M prefix marks the Fc, isotype not spelled out
B1: the binding result was “binds”.

B2: H3M6726N (antibody, V domains shown)
VH: EVQLLESGGVLVQPGGSLRLSCAASGFNFNNYDMSWVRQAPGKGLEWVSVISASGRNTYYADSVKGRFTISRDNSKISLYLQMNSLRPEDTAVYYCAKDHLVHYYYGMDVWGQGTTVTVSS
VL: DIMMTQSPLSLSVTPGEPASISCRSSQSLLHSNGYNYLDWYLQKSGQSPHLLIYLGSNRASGVPDRFSGSGSGTDFTLKISRVEAEDGGVYYCMQALQTPRTFGQGTKVEIK
notes: as for B1
As to B2, the binding result was “binds”.
